Assay results from article PMC9563779.

Target: Oslo-2 mAb
Test: peptide array on cellulose membrane (epitope mapping)
Conditions: chain shown with the change; duplicates; parent: est. 12000; read off a plot

Chain of Oslo-2 mAb (chain, as listed by the source, chain 1 of 2): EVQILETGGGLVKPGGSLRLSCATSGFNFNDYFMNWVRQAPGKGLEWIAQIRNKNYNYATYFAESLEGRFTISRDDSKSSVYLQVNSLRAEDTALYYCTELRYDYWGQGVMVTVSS
Chain of Oslo-2 mAb (chain, as listed by the source, chain 2 of 2): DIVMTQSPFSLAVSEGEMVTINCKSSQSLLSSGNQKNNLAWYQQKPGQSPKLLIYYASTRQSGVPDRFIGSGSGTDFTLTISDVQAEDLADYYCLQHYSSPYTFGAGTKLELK

- response: 1700
Binder: GVKPDLSYMPIWKFPDAAGA [20 mer epitope peptide … (region 603-622 in HER2) E619A; E620A]
